Laboratory results published in the RNAGym collection of RNA variant scans (doi:10.7554/elife.80360).

B1: HDV Ribozyme (parent)
chain: GGCCGGCAUGGUCCCAGCCUCCUCGCUGGCGCCGGCUGGGCAACAUUCCGAGGGGACCGUCCCCUCGGUAAUGGCGAAUGGGACCCA

Variants of: B1
Test: self-cleavage, relative activity (ratio to wild type); higher = more cleavage; co-transcriptional

For GGCCGGCAUGGUCCAAGCCUCCUCGCUGGCGCCGGCAGGGCAACAUUCCGAGGGGACCGUCCCCUCGGUAAUGGCGAAUGGGACCCA, which self-cleavage is on record?
Its self-cleavage is 0.102.

With GGCCGGCAUGGUCCAAGCCUCCUCGCUGGCGCCGGCUGGGCAACAUUCCGAGGGGACCGUCCCCUCGGUAAUGGCGAACGGGACCCA as the variant, how does the self-cleavage read?
The self-cleavage was 0.326.

For GGCCGGCAUGGUCCAAGCCUCCCCGCUGGCGCCGGCUGGGCAACAUUCCGAGGGGACCGUCCCCUCGGUAAUGGCGAAUGGGACCCA, which self-cleavage is on record?
Its self-cleavage is 0.748.

For GGCCGGCAUGGUCCAAGCCUCCUCGCUGGCGCCGGCUGGGCAACAUUCCGAGGGGACCGUCCCCUCGGUAACGGCGAAUGGGACCCA, which self-cleavage is on record?
The self-cleavage was 0.208.

For GGCCGGCAUGGUCCAAGCCUCCUCGCUGGCGCCGGCUGGGCAACAUUCCGAGGGGACCGUCCCCUCGGUAAGGGCGAAUGGGACCCA, which self-cleavage is on record?
Its self-cleavage is 0.277.

With GGCCGGCAUGGUCCAAGCCUCCUCGCUGGCGCCGGCUGGGCAACAUUCCGAGGGGACCGUCCCCUCGGUAAAGGCGAAUGGGACCCA as the variant, how does the self-cleavage read?
The self-cleavage was 0.107.

With GGCCGGCAUGGUCCAAGCCUCCUCGCUGGCGCCGGCUGGGCAACAUUCCGAGGGGACCGUCCCCUCGGUAAUGCCGAAUGGGACCCA as the variant, how does the self-cleavage read?
Its self-cleavage is 0.185.

With GGCCGGCAUGGUCCAAGCCUCCUCGCUGGCGCCGGCUGGGCAACAUUCCGAGGGGACCGUCCCCUCGGUAAUGUCGAAUGGGACCCA as the variant, how does the self-cleavage read?
Its self-cleavage is 0.218.

For GGCCGGCAUGGUCCAAGCCUCCUCGCUGGCGCCGGCUGGGCAACAUUCCGAGGGGACCGUCCCCUCGGUAAUGACGAAUGGGACCCA, which self-cleavage is on record?
Its self-cleavage is 0.174.

Which self-cleavage does the source give for GGCCGGCAUGGUCCAAGCCACCUCGCUGGCGCCGGCUGGGCAACAUUCCGAGGGGACCGUCCCCUCGGUAAUGGCGAAUGGGACCCA here?
The self-cleavage was 0.0573.

Which self-cleavage does the source give for GGCCGGCAUGGUCCAAGCCGCCUCGCUGGCGCCGGCUGGGCAACAUUCCGAGGGGACCGUCCCCUCGGUAAUGGCGAAUGGGACCCA here?
Its self-cleavage is 0.19.

For GGCCGGCAUGGUCCAAGCCUCCUCGCUGGCGCCGGCUGGGCAACAUUCCGAGGGGACCGUCCCCUCGGUAAUCGCGAAUGGGACCCA, which self-cleavage is on record?
The self-cleavage was 0.249.

Which self-cleavage does the source give for GGCCGGCAUGGUCCAAGCCUCCUCGCUGGCGCCGGCUGGGCAACAUUCCGAGGGGACCGUCCCCUCGGUAAUGGCGAAUGUGACCCA here?
Its self-cleavage is 0.232.

For GGCCGGCAUGGUCCAAGCCUCCUCGCUGGCGCCGGCUGGGCAACAUUCCGAGGGGACCGUCCCCUCGGUAAUGGCGAAUGCGACCCA, which self-cleavage is on record?
Its self-cleavage is 0.208.

Which self-cleavage does the source give for GGCCGGCAUGGUCCAAGCCUCCUCGCUGGCGCCGGCUGGGCAACAUCCCGAGGGGACCGUCCCCUCGGUAAUGGCGAAUGGGACCCA here?
Its self-cleavage is 0.317.

With GGCCGGCAUGGUCCAAGCCUCCUCGCUGGCGCCGGCUGGGCAACAUACCGAGGGGACCGUCCCCUCGGUAAUGGCGAAUGGGACCCA as the variant, how does the self-cleavage read?
Its self-cleavage is 0.522.

For GGCCGGCAUGGUCCAAGCCUCCUCGCUGGCGCCGGCUGGGCAACAUGCCGAGGGGACCGUCCCCUCGGUAAUGGCGAAUGGGACCCA, which self-cleavage is on record?
Its self-cleavage is 0.35.

Which self-cleavage does the source give for GGCCGGCAUGGUCCAAGCCUCCUCGCUGGCGCCGGCUGGGCAACAUUCCGAGGGGACCGUCCCCUCGGUAAUGGCUAAUGGGACCCA here?
The self-cleavage was 0.919.

Which self-cleavage does the source give for GGCCGGCAUGGUCCAAGCCUCCUCGCUGGCGCCGGCUGGGCAACAUUCCGAGGGGACCGUCCCCCCGGUAAUGGCGAAUGGGACCCA here?
The self-cleavage was 0.519.

Which self-cleavage does the source give for GGCCGGCAUGGUCCAAGCCUCCUCGCUGGCGCCGGCUGGGCAACAUUCCGAGGGGACCGUCCCCACGGUAAUGGCGAAUGGGACCCA here?
Its self-cleavage is 0.388.

For GGCCGGCAUGGUCCAAGCCUCCUCGCUGGCGCCGGCUGGGCAACAUUCCGAGGGGACCGCCCCCUCGGUAAUGGCGAAUGGGACCCA, which self-cleavage is on record?
Its self-cleavage is 0.538.

With GGCCGGCAUGGUCCAAGCCUCCUCGCUGGCGCCGGCUGGGCAACAUUCCGAGGGGACCGACCCCUCGGUAAUGGCGAAUGGGACCCA as the variant, how does the self-cleavage read?
The self-cleavage was 0.623.

For GGCCGGCAUGGUCCGAGCCUCCUCGCUGGCGCCGGCUGGGCACCAUUCCGAGGGGACCGUCCCCUCGGUAAUGGCGAAUGGGACCCA, which self-cleavage is on record?
The self-cleavage was 0.0875.

Which self-cleavage does the source give for GGCCGGCAUGGUCCGAGCCUCCUCGCUGGCGCCGGCUGGGCAACAUUCCGAGGGGCCCGUCCCCUCGGUAAUGGCGAAUGGGACCCA here?
The self-cleavage was 0.739.

For GGCCGGCAUGGUCCAAGCCUCCUCGCUGGCGCCGGCUGGGCAACACUCCGAGGGGACCGUCCCCUCGGUAAUGGCGAAUGGGACCCA, which self-cleavage is on record?
Its self-cleavage is 0.653.

For GGCCGGCAUGGUCCAAGCCUCCUCGCUGGCGCCGGCUGGGCAACAAUCCGAGGGGACCGUCCCCUCGGUAAUGGCGAAUGGGACCCA, which self-cleavage is on record?
Its self-cleavage is 0.361.

For GGCCGGCAUGGUCCGAGCCUCCUCGCUGGCGCCGGCUGGGCAACAUUCCGGGGGGACCGUCCCCUCGGUAAUGGCGAAUGGGACCCA, which self-cleavage is on record?
Its self-cleavage is 0.587.

For GGCCGGCAUGGUCCGAGCCUCCUCGCUGGCGCCGGCUGGGCAACAUUCCGCGGGGACCGUCCCCUCGGUAAUGGCGAAUGGGACCCA, which self-cleavage is on record?
The self-cleavage was 0.623.

With GGCCGGCAUGGUCCAAGCCUCCUCGCUGGCGCCGGCUGGGCAACAUUCCGAGGGGACCGUCCCCUCGGCAAUGGCGAAUGGGACCCA as the variant, how does the self-cleavage read?
Its self-cleavage is 0.598.

With GGCCGGCAUGGUCCGCGCCUCCUCGCUGGCGCCGGCUGGGCAACAUUCCGAGGGGACCGUCCCCUCGGUAAUGGCGAAUGGGACCCA as the variant, how does the self-cleavage read?
Its self-cleavage is 0.369.

For GGCCGGCAUGGUCCGAGCCUCCUCGCUGGCGCCGGCUGGGCAACCUUCCGAGGGGACCGUCCCCUCGGUAAUGGCGAAUGGGACCCA, which self-cleavage is on record?
Its self-cleavage is 0.217.

For GGCCGGCAUGGUCCGAGCCUCCUCGCUGGCGCCGGCUGGGCAACGUUCCGAGGGGACCGUCCCCUCGGUAAUGGCGAAUGGGACCCA, which self-cleavage is on record?
Its self-cleavage is 0.665.
